Results reported in patent US20240400614A1, “CLEAVABLE PEPTIDES AND METHODS OF USE THEREOF” (Bright Peak Therapeutics AG, priority 2023, published 2024).
Square brackets hold non-standard residues; d marks the D form. Ends that are not written are not given here. Tyr(3-NO2) = N[C@@H](Cc1ccc(O)c([N+](=O)[O-])c1)C(=O)O; 2Abz = Nc1ccccc1C(=O)O

What was measured:
Assay type in all cases: biochemical
Kallikrein-3 = Kallikrein-3 (Homo sapiens, UniProt P07288); assay: FRET peptide cleavage efficiency with Kallikrein-3; settings: peptide 200 uM, Kallikrein-3 2 μg/ml, 37° C., pH 8
uPA = uPA (Homo sapiens, UniProt P00749); assay: FRET peptide cleavage efficiency with uPA; settings: 200 uM linker, 1 ug/ml protease, 37° C., buffer A pH 8.5
matriptase = molecular target: T1, matriptase (Homo sapiens, UniProt Q9Y5Y6); assay: FRET peptide cleavage efficiency with matriptase; settings: 200 uM linker, 1 ug/ml protease, 37° C., buffer B pH 9.0
T1 construct: purchased R&D Systems 3946-SEB
T1 sequence (Q9Y5Y6 615-855 limits assumed): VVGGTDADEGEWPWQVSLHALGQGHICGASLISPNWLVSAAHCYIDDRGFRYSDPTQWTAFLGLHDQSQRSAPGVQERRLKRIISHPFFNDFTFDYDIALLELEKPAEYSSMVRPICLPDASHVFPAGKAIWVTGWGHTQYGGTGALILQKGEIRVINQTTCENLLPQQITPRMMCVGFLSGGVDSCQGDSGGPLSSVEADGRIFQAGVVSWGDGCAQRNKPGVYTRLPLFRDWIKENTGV

MMP-2 = molecular target: T2, MMP-2 (Homo sapiens, UniProt P08253); assay: FRET peptide cleavage efficiency with MMP-2
T2 construct: purchased SIGMA PF023
T2 sequence (P08253 110-660): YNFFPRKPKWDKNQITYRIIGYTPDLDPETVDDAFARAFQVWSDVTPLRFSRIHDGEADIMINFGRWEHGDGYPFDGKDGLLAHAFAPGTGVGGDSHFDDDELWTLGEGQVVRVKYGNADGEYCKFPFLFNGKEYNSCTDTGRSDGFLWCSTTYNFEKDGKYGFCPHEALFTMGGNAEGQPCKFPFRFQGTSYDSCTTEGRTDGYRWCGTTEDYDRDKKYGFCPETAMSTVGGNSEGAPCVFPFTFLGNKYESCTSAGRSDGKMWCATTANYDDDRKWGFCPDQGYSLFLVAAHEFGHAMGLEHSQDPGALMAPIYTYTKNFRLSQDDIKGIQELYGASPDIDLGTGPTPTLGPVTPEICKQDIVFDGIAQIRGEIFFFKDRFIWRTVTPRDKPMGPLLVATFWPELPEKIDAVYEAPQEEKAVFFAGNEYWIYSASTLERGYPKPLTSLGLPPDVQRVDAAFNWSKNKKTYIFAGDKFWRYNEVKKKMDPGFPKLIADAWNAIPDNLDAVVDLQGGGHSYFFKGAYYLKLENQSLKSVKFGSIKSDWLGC

MMP-7 = molecular target: T3, MMP-7 (Homo sapiens, UniProt P09237); assay: FRET peptide cleavage efficiency with MMP-7 (standard pH 7.5; also pH 6.5); settings: for % cleavage MMP-7 t = 15 min: t = 15 min (Table 9); for % cleavage MMP-7 t = 60 min: t = 60 min (Table 9); for % cleavage MMP-7 t = 120 min: t = 120 min (Table 9)
T3 construct: purchased SIGMA CC1059
T3 sequence (P09237 95-267): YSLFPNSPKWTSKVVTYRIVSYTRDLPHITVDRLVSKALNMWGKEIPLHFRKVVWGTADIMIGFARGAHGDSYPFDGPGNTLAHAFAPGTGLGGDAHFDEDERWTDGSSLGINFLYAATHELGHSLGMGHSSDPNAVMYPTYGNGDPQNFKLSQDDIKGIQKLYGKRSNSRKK

MMP-9 = molecular target: T4, MMP-9 (Homo sapiens, UniProt P14780); assay: FRET peptide cleavage efficiency with MMP-9 (standard pH 7.5; also pH 6.5); settings: for % cleavage MMP-9 t = 15 min: t = 15 min (Table 9); for % cleavage MMP-9 t = 60 min: t = 60 min (Table 9); for % cleavage MMP-9 t = 120 min: t = 120 min (Table 9)
T4 construct: purchased SIGMA PF024

[1] = t = 15 min, 200 uM linker, 1 ug/ml protease, 37° C., buffer C pH 7.5
[2] = t = 60 min, 200 uM linker, 1 ug/ml protease, 37° C., buffer C pH 7.5
[3] = t = 120 min, 200 uM linker, 1 ug/ml protease, 37° C., buffer C pH 7.5

T4 sequence (P14780 94-707): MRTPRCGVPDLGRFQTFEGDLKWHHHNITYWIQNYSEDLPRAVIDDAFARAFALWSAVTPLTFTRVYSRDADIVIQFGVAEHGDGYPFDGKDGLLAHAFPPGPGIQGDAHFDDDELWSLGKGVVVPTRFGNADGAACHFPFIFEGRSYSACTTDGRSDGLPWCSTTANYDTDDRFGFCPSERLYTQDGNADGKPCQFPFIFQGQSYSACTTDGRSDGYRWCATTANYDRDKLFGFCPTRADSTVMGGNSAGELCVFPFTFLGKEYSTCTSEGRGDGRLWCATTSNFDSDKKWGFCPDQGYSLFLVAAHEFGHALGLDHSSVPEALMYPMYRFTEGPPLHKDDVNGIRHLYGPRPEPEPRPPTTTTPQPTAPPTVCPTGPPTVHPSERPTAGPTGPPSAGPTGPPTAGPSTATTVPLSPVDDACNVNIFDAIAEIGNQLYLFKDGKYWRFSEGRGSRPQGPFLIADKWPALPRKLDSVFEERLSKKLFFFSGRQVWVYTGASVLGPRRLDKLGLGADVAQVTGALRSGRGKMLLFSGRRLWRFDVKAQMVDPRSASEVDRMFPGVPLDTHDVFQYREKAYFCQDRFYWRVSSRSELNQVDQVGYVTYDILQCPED
Chain of Kallikrein-3 (P07288 25-261, species assumed): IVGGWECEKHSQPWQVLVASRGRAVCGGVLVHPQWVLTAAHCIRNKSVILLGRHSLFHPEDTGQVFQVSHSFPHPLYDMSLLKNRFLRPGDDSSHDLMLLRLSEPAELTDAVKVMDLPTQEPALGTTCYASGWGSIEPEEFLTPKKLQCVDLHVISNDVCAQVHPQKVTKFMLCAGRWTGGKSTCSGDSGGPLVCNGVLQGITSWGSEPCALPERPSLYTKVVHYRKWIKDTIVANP

Substance	Kallikrein-3 t = 1 h % cleavage (Kallikrein-3) [%]	Kallikrein-3 t = 3 h % cleavage (Kallikrein-3) [%]	Kallikrein-3 t = 6 h % cleavage (Kallikrein-3) [%]	Kallikrein-3 t = 8 h % cleavage (Kallikrein-3) [%]	% cleavage uPA t = 15 min (uPA) [%]	% cleavage uPA t = 60 min (uPA) [%]	% cleavage uPA t = 120 min (uPA) [%]	% cleavage Matriptase t = 15 min (matriptase) [%]	% cleavage Matriptase t = 60 min (matriptase) [%]	% cleavage Matriptase t = 120 min (matriptase) [%]	% cleavage MMP-2 t = 15 min (MMP-2; t = 15 min (Table 9)) [%]	% cleavage MMP-2 t = 15 min (MMP-2; [1]) [%]	% cleavage MMP-2 t = 60 min (MMP-2; t = 60 min (Table 9)) [%]	% cleavage MMP-2 t = 60 min (MMP-2; [2]) [%]	% cleavage MMP-2 t = 120 min (MMP-2; t = 120 min (Table 9)) [%]	% cleavage MMP-2 t = 120 min (MMP-2; [3]) [%]	% cleavage MMP-7 t = 15 min (MMP-7) [%]	% cleavage MMP-7 t = 60 min (MMP-7) [%]	% cleavage MMP-7 t = 120 min (MMP-7) [%]	% cleavage MMP-9 t = 15 min (MMP-9) [%]	other results
RGRRHSSKLQPLGYFGKL ([2Abz]RGRRHSSKLQPLGYFGKL[Tyr(3-NO2)]-NH2) [LNK062]	28	79	100	100	0	0	0	66	100	100	71	71	100	100	100	100	0	0	0	41	% cleavage MMP-9 t = 60 min (MMP-9): 100%; % cleavage MMP-9 t = 120 min (MMP-9): 100%
RGRRHSSKLQ ([2Abz]RGRRHSSKLQ[Tyr(3-NO2)]-NH2) [LNK052]	8	31	55	67	0	0	0	60	100	100	1	1	2	2	4	4	0	0	0	0	% cleavage MMP-9 t = 60 min (MMP-9): 0%; % cleavage MMP-9 t = 120 min (MMP-9): 0%
HSSKLQYFGKL ([2Abz]HSSKLQYFGKL[Tyr(3-NO2)]-NH2) [LNK061]	0	0	0	0	0	0	0	0	0	0	23	23	74	74	100	100	0	0	0	0	% cleavage MMP-9 t = 60 min (MMP-9): 0%; % cleavage MMP-9 t = 120 min (MMP-9): 0%

Now from value to substance, other results behind:

Kallikrein-3 t = 1 h % cleavage (Kallikrein-3) [%]	Kallikrein-3 t = 3 h % cleavage (Kallikrein-3) [%]	Kallikrein-3 t = 6 h % cleavage (Kallikrein-3) [%]	Kallikrein-3 t = 8 h % cleavage (Kallikrein-3) [%]	% cleavage uPA t = 15 min (uPA) [%]	% cleavage uPA t = 60 min (uPA) [%]	% cleavage uPA t = 120 min (uPA) [%]	% cleavage Matriptase t = 15 min (matriptase) [%]	% cleavage Matriptase t = 60 min (matriptase) [%]	% cleavage Matriptase t = 120 min (matriptase) [%]	% cleavage MMP-2 t = 15 min (MMP-2; t = 15 min (Table 9)) [%]	% cleavage MMP-2 t = 15 min (MMP-2; [1]) [%]	% cleavage MMP-2 t = 60 min (MMP-2; t = 60 min (Table 9)) [%]	% cleavage MMP-2 t = 60 min (MMP-2; [2]) [%]	% cleavage MMP-2 t = 120 min (MMP-2; t = 120 min (Table 9)) [%]	% cleavage MMP-2 t = 120 min (MMP-2; [3]) [%]	% cleavage MMP-7 t = 15 min (MMP-7) [%]	% cleavage MMP-7 t = 60 min (MMP-7) [%]	% cleavage MMP-7 t = 120 min (MMP-7) [%]	% cleavage MMP-9 t = 15 min (MMP-9) [%]	Substance	other results
7	20	37	45	0	0	0	9	35	62	82	82	100	100	100	100	2	3	0	23	SGRHSSKLQPLGYFGKL ([2Abz]SGRHSSKLQPLGYFGKL[Tyr(3-NO2)]-NH2) [LNK063]	% cleavage MMP-9 t = 60 min (MMP-9): 93%; % cleavage MMP-9 t = 120 min (MMP-9): 100%
0	0	0	0	0	0	0	0	0	0	0	0	0	0	0	0	0	0	0	0	GSGSGSGS ([2Abz]GSGSGSGS[Tyr(3-NO2)]-NH2) [LNK064]	% cleavage MMP-9 t = 60 min (MMP-9): 0%; % cleavage MMP-9 t = 120 min (MMP-9): 0%
49	83	94	100	2	9	19	8	33	56	16	16	60	60	86	86	0	0	0	1	RSSYRSL ([2Abz]RSSYRSL[Tyr(3-NO2)]-NH2) [LNK075]	% cleavage MMP-9 t = 60 min (MMP-9): 5%; % cleavage MMP-9 t = 120 min (MMP-9): 10%
